Target: T1, recombinant mouse LRP6His chimera (mouse, UniProt O88572 20-1370)
T1 construct: extracellular domain; not shown: His tag
T1 sequence (looked up): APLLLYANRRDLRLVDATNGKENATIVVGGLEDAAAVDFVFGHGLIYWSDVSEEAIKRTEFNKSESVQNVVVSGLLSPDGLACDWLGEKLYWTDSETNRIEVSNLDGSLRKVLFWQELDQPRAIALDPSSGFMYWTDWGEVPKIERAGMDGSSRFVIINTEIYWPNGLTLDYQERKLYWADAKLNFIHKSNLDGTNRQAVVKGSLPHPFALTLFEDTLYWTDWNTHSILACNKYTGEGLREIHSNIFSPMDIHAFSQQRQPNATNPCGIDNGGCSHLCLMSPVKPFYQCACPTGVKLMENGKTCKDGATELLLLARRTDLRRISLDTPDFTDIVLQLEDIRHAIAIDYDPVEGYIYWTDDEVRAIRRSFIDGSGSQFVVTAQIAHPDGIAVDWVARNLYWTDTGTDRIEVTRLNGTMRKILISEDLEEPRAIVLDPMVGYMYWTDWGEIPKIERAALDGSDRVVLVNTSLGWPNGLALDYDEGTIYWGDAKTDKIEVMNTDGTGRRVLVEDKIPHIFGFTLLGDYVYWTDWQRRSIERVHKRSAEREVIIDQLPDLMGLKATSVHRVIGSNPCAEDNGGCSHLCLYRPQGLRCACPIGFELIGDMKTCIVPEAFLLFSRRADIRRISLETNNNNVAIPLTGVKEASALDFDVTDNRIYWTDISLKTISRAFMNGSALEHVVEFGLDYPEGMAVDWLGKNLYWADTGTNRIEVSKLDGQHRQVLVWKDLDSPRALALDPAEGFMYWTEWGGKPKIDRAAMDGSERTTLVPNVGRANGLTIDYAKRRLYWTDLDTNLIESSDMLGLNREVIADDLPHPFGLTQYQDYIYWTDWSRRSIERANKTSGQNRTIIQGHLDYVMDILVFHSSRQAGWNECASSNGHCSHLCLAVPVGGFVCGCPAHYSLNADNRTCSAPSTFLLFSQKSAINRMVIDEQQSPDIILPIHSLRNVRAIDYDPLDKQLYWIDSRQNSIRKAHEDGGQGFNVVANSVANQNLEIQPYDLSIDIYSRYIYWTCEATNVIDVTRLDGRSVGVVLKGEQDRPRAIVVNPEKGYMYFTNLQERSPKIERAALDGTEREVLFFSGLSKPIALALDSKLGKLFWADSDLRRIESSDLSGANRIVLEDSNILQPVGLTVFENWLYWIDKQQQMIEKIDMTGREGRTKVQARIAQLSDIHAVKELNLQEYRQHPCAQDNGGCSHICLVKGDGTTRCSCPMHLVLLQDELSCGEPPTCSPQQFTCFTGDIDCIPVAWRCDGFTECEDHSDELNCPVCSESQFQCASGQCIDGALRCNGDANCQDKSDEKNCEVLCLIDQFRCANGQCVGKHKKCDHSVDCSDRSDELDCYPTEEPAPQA
Assay: single-point ELISA, IgG1 on coated antigen

- binding result: no binding
B1: LRP6-E3 IgG1 antibody (antibody, V domains shown)
VH: EVQLVESGGGLVQPGGSLRLSCAASGFNLYYYSMHWVRQAPGKGLEWVASIYSSYGYTYYADSVKGRFTISADTSKNTAYLQMNSLRAEDTAVYYCARYAGYYYYPWAYYGWPFSGLDYWGQGTLVTVSS
VL: DIQMTQSPSSLSASVGDRVTITCRASQSVSSAVAWYQQKPGKAPKLLIYSASSLYSGVPSRFSGSRSGTDFTLTISSLQPEDFATYYCQQAGSAPYHLITFGQGTKVEIKR
notes: Tested as purified full length IgG1

From US20220281969A1 (ANTLERA THERAPEUTICS, published 2022)
